Where two headings read alike, the source gives them in different places. Values belong to the binder of their own block, whether it stands above or below them.
Experiments:
human ANG2 [1] = biological target: T1, human ANG2 (human, UniProt O15123); assay: competition, Tie2 binding inhibition (pTie2 ELISA)
T1 chain: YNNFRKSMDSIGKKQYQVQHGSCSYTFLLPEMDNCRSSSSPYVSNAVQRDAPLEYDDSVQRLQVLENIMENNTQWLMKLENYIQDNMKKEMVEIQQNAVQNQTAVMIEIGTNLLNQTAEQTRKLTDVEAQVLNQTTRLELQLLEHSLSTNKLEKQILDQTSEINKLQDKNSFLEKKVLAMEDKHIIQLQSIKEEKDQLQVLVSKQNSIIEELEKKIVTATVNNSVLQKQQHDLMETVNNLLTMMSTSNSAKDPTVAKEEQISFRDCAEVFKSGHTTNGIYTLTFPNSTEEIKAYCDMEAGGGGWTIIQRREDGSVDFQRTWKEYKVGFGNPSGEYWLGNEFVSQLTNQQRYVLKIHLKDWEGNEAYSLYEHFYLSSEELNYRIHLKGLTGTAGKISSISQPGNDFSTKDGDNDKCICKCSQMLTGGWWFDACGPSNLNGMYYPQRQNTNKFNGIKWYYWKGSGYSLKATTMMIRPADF

human ANG2-RBD-Fc [2] = biological target: T2, human ANG2-RBD-Fc (human, UniProt O15123); assay: SPR
T2 chain: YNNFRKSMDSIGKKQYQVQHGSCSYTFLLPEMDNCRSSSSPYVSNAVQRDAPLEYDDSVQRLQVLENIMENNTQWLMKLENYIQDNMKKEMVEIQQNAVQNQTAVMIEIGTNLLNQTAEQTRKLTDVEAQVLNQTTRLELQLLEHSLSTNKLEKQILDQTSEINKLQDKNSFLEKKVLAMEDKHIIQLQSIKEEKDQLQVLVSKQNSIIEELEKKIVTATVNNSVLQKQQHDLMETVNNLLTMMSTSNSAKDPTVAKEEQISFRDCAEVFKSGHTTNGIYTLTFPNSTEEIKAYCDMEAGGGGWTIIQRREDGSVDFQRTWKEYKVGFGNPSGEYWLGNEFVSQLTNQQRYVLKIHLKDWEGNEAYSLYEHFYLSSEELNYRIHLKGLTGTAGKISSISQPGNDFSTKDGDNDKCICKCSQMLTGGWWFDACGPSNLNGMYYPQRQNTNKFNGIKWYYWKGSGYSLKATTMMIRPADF

human ANG2-RBD-Fc [3] = biological target: T2, human ANG2-RBD-Fc; assay: SPR
human ANG2-RBD-Fc [4] = biological target: T2, human ANG2-RBD-Fc; assay: SPR
human ANG2-RBD-Fc [5] = biological target: T2, human ANG2-RBD-Fc; assay: SPR bivalent
human ANG2-RBD-Fc [6] = biological target: T2, human ANG2-RBD-Fc; assay: SPR bivalent
human ANG2 [7] = biological target: T1, human ANG2; assay: competition, Tie2 binding inhibition (pTie2 ELISA)
human ANG2-RBD-Fc [8] = biological target: T2, human ANG2-RBD-Fc; assay: SPR
human ANG2-RBD-Fc [9] = biological target: T2, human ANG2-RBD-Fc; assay: SPR
human ANG2-RBD-Fc [10] = biological target: T2, human ANG2-RBD-Fc; assay: SPR
human ANG2-RBD-Fc [11] = biological target: T2, human ANG2-RBD-Fc; assay: SPR
human ANG2 [12] = biological target: T1, human ANG2; assay: competition, Tie2 binding inhibition (pTie2 ELISA)

EC50 (human ANG2 [1]): 7 nM
Kd (human ANG2-RBD-Fc [2]): 1 nM
Kd (human ANG2-RBD-Fc [3]): 1 nM
B1: 0090 (antibody)
chain 1: not shown
chain 2: SYVLTQPPSVSVAPGQTARITCGGNNIGSKSVHWYQQKPGQAPVLVVYDTSDRPSGIPERFSGSNSGNTATLTISRVEAGDEADYYCQVWDSSSDHWVFGGGTKLTVLSSASTKGPSVFPLAPSSKSTSGGTAALGCLVKDYFPEPVTVSWNSGALTSGVHTFPAVLQSSGLYSLSSVVTVPSSSLGTQTYICNVNHKPSNTKVDKKVEPKSC

Kd (human ANG2-RBD-Fc [4]): 4 nM
B2: 0165 ANG2 arm (antibody)
chain 1: not shown
chain 2: SYVLTQPPSVSVAPGQTARITCGGNNIGSKSVHWYQQKPGQAPVLVVYDTSDRPSGIPERFSGSNSGNTATLTISRVEAGDEADYYCQVWDSSSDHWVFGGGTKLTVLSSASTKGPSVFPLAPSSKSTSGGTAALGCLVKDYFPEPVTVSWNSGALTSGVHTFPAVLQSSGLYSLSSVVTVPSSSLGTQTYICNVNHKPSNTKVDKKVEPKSC

Kd (human ANG2-RBD-Fc [5]): 0.008 nM
Kd (human ANG2-RBD-Fc [6]): 0.008 nM
EC50 (human ANG2 [7]): 3.2 nM
B3: 0100 (antibody)
chain 1: not shown
chain 2: SYVLTQPPSVSVAPGQTARITCGGNNIGSKSVHWYQQKPGQAPVLVVYDTSDRPSGIPERFSGSNSGNTATLTISRVEAGDEADYYCQVWDSSSDHWVFGGGTKLTVLSSASTKGPSVFPLAPSSKSTSGGTAALGCLVKDYFPEPVTVSWNSGALTSGVHTFPAVLQSSGLYSLSSVVTVPSSSLGTQTYICNVNHKPSNTKVDKKVEPKSC

Kd (human ANG2-RBD-Fc [8]): 3 nM
B4: 0033 (antibody, V domains shown)
VH: not shown
VL: SYVLTQPPSVSVAPGQTARITCGGNNIGSKSVHWYQQKPGQAPVLVVYDDSDRPSGIPERFSGSNSGNTATLTISRVEAGDEADYYCQVWDSSSDHWVFGGGTKLTVLS

Kd (human ANG2-RBD-Fc [9]): 38 nM
B5: 0025 (antibody, V domains shown)
VH: not shown
VL: SYVLTQPPSVSVAPGQTARITCGGNNIGSKSVHWYQQKPGQAPVLVVYDDSDRPSGIPERFSGSNSGNTATLTISRVEAGDEADYYCQVWDSSSDHWVFGGGTKLTVLS

Kd (human ANG2-RBD-Fc [8]): 69 nM
B6: 0027 (antibody, V domains shown)
VH: not shown
VL: SYVLTQPPSVSVAPGQTARITCGGNNIGSKSVHWYQQKPGQAPVLVVYDDSDRPSGIPERFSGSNSGNTATLTISRVEAGDEADYYCQVWDSSSDHWVFGGGTKLTVLS

Kd (human ANG2-RBD-Fc [5]): 0.007 nM
Kd (human ANG2-RBD-Fc [6]): 0.007 nM
EC50 (human ANG2 [7]): 3 nM
B7: 0101 (antibody, V domains shown)
VH: not shown
VL: SYVLTQPPSVSVAPGQTARITCGGNNIGSKSVHWYQQKPGQAPVLVVYDTSDRPSGIPERFSGSNSGNTATLTISRVEAGDEADYYCQVWDSSSDHWVFGGGTKLTVLS

Kd (human ANG2-RBD-Fc [10]): 21 nM
B8: 0060 (antibody, V domains shown)
VH: not shown
VL: SYVLTQPPSVSVAPGQTARITCGGNNIGSKSVHWYQQKPGQAPVLVVYDTSDRPSGIPERFSGSNSGNTATLTISRVEAGDEADYYCQVWDSSSDHWVFGGGTKLTVLS

Kd (human ANG2-RBD-Fc [4]): 4 nM
B9: 0163 ANG2 arm (antibody, V domains shown)
VH: not shown
VL: QPGLTQPPSVSVAPGQTARITCGGNNIGSKSVHWYQQKPGQAPVLVVYDTSDRPSGIPERFSGSNSGNTATLTISRVEAGDEADYYCQVWDSSSDHYVFGTGTKVTVLS

Kd (human ANG2-RBD-Fc [10]): 21 nM
B10: 0058 (antibody, V domains shown)
VH: not shown
VL: SYVLTQPPSVSVAPGQTARITCGGNNIGSKSVHWYQQKPGQAPVLVVYDDSDRPSGIPERFSGSNSGNTATLTISRVEAGDEADYYCQVWDSSSDHWVFGGGTKLTVLS

Kd (human ANG2-RBD-Fc [9]): 18 nM
B11: 0026 (antibody, V domains shown)
VH: not shown
VL: SYVLTQPPSVSVAPGQTARITCGGNNIGSKSVHWYQQKPGQAPVLVVYDDSDRPSGIPERFSGSNSGNTATLTISRVEAGDEADYYCQVWDSSSDHWVFGGGTKLTVLS

Kd (human ANG2-RBD-Fc [5]): 0.004 nM
Kd (human ANG2-RBD-Fc [6]): 0.004 nM
EC50 (human ANG2 [7]): 3.2 nM
B12: 0099 (antibody, V domains shown)
VH: not shown
VL: SYVLTQPPSVSVAPGQTARITCGGNNIGSKSVHWYQQKPGQAPVLVVYDDSDRPSGIPERFSGSNSGNTATLTISRVEAGDEADYYCQVWDSSSDHWVFGGGTKLTVLS

Kd (human ANG2-RBD-Fc [10]): 29 nM
B13: 0057 (antibody, V domains shown)
VH: not shown
VL: SYVLTQPPSVSVAPGQTARITCGGNNIGSKSVHWYQQKPGQAPVLVVYDDSDRPSGIPERFSGSNSGNTATLTISRVEAGDEADYYCQVWDSSSDHWVFGGGTKLTVLS

Kd (human ANG2-RBD-Fc [11]): 43 nM
B14: 0155 (antibody, V domains shown)
VH: not shown
VL: QPGLTQPPSVSVAPGQTARITCGGNNIGSKSVHWYQQKPGQAPVLVVYDTSDRPSGIPERFSGSNSGNTATLTISRVEAGDEADYYCQVWDSSSDHYVFGTGTKVTVLS

Kd (human ANG2-RBD-Fc [2]): 16 nM
B15: 0074 (antibody, V domains shown)
VH: not shown
VL: SYVLTQPPSVSVAPGQTARITCGGNNIGSKSVHWYQQKPGQAPVLVVYDDSDRPSGIPERFSGSNSGNTATLTISRVEAGDEADYYCQVWDSSSDHWVFGGGTKLTVLS

EC50 (human ANG2 [1]): 39 nM
Kd (human ANG2-RBD-Fc [2]): 14 nM
Kd (human ANG2-RBD-Fc [3]): 14 nM
B16: 0075 (antibody, V domains shown)
VH: not shown
VL: SYVLTQPPSVSVAPGQTARITCGGNNIGSKSVHWYQQKPGQAPVLVVYDTSDRPSGIPERFSGSNSGNTATLTISRVEAGDEADYYCQVWDSSSDHWVFGGGTKLTVLS

Kd (human ANG2-RBD-Fc [4]): 49 nM
B17: 0166 ANG2 arm (antibody, V domains shown)
VH: not shown
VL: SYVLTQPPSVSVAPGQTARITCGGNNIGSKSVHWYQQKPGQAPVLVVYDTSDRPSGIPERFSGSNSGNTATLTISRVEAGDEADYYCQVWDSSSDHWVFGGGTKLTVLS

Kd (human ANG2-RBD-Fc [10]): 4 nM
B18: 0042 (antibody, V domains shown)
VH: not shown
VL: SYVLTQPPSVSVAPGQTARITCGGNNIGSKSVHWYQQKPGQAPVLVVYDDSDRPSGIPERFSGSNSGNTATLTISRVEAGDEADYYCQVWDSSSDHWVFGGGTKLTVLS

Kd (human ANG2-RBD-Fc [11]): 5 nM
B19: 0156 (antibody, V domains shown)
VH: not shown
VL: QPGLTQPPSVSVAPGQTARITCGGNNIGSKSVHWYQQKPGQAPVLVVYDTSDRPSGIPERFSGSNSGNTATLTISRVEAGDEADYYCQVWDSSSDHYVFGTGTKVTVLS

Kd (human ANG2-RBD-Fc [10]): 1 nM
Kd (human ANG2-RBD-Fc [3]): 1 nM
EC50 (human ANG2 [12]): 5.4 nM
B20: 0041 (antibody, V domains shown)
VH: not shown
VL: SYVLTQPPSVSVAPGQTARITCGGNNIGSKSVHWYQQKPGQAPVLVVYDDSDRPSGIPERFSGSNSGNTATLTISRVEAGDEADYYCQVWDSSSDHWVFGGGTKLTVLS

Kd (human ANG2-RBD-Fc [4]): 39 nM
B21: 0164 ANG2 arm (antibody, V domains shown)
VH: not shown
VL: QPGLTQPPSVSVAPGQTARITCGGNNIGSKSVHWYQQKPGQAPVLVVYDTSDRPSGIPERFSGSNSGNTATLTISRVEAGDEADYYCQVWDSSSDHYVFGTGTKVTVLS

Kd (human ANG2-RBD-Fc [9]): 12 nM
B22: 0017 (antibody, V domains shown)
VH: not shown
VL: SYVLTQPPSVSVAPGQTARITCGGNNIGSKSVHWYQQKPGQAPVLVVYDDSDRPSGIPERFSGSNSGNTATLTISRVEAGDEADYYCQVWDSSSDHWVFGGGTKLTVLS

Kd (human ANG2-RBD-Fc [10]): 23 nM
B23: 0040 (antibody, V domains shown)
VH: not shown
VL: SYVLTQPPSVSVAPGQTARITCGGNNIGSKSVHWYQQKPGQAPVLVVYDDSDRPSGIPERFSGSNSGNTATLTISRVEAGDEADYYCQVWDSSSDHWVFGGGTKLTVLS

Kd (human ANG2-RBD-Fc [8]): 143 nM
B24: 0028 (antibody, V domains shown)
VH: not shown
VL: SYVLTQPPSVSVAPGQTARITCGGNNIGSKSVHWYQQKPGQAPVLVVYDDSDRPSGIPERFSGSNSGNTATLTISRVEAGDEADYYCQVWDSSSDHWVFGGGTKLTVLS

Kd (human ANG2-RBD-Fc [10]): 18 nM
B25: 0061 (antibody, V domains shown)
VH: not shown
VL: SYVLTQPPSVSVAPGQTARITCGGNNIGSKSVHWYQQKPGQAPVLVVYDTSDRPSGIPERFSGSNSGNTATLTISRVEAGDEADYYCQVWDSSSDHWVFGGGTKLTVLS
